Experimental data published in US20220106391A1 (ZOETIS SERVICES, published 2022).
Numbering of substitutions follows the chain as printed.

B1: 01B12 Chimera (antibody, V domains shown)
VH: QVQLKESGPGLVAPSQSLSITCTVSGFSLTGYGVNWVRQPPGKGLEWLGMIWGDGSTDYNSALKSRLSISKDNSKSQVFLKMNSLQTDDTARYYCARDGYYYGTTWYFDVWGAGTTVTV
VL: DIQMTQTTSSLSASLGDRVTISCRASQDISNYLNWYQQKPDGTIKLLIYYTSRLHSGVPSRFSGSGSGTDYSLTISNLEQEDIATYFCQQGSTLPRTFGGGT
notes: Mouse variable domains on canine IgG constant regions; 184 and 160; also called Chim-01B12
B2: H3AQC23L5A (antibody, V domains shown)
VH: EVQLVESGGDLARPGGSLKLSCVVSGFTLTQYGINWVRQAPGKGLQWVTVIWATGATDYNSALKSRFTVSRDNAMNTVYLQMNSLRVEDTAVYYCARDGWWYATSWYFDVWGQGTLVTVSS
VL: DIVMTQTPLSLSVSPGEPASISCKASQDINHYLNWFRQKPDGTVKLLIYYTSSLHSGVPSRFSGSGSGTDFTLRISRVEADDAGVYYCQQGDHFPRTFGQGT
notes: Caninized IgG
B3: H3AQC2301B12L1AL1 (antibody, V domains shown)
VH: B2 VH
VL: B2 VL with D28S, S53R, D92S, H93T, F94L
notes: Caninized IgG
B4: H3AQC2301B12L2AL1 (antibody, V domains shown)
VH: B2 VH
VL: B2 VL with D28S, S53R, D92S, H93T, F94L
notes: Caninized IgG
B5: H3AQC2301B12L5AL2 (antibody, V domains shown)
VH: B2 VH
VL: B2 VL with K24R, N30S, H31N, D92S, H93T, F94L
notes: Caninized IgG
B6: H3AQC2301B12LC (antibody, V domains shown)
VH: B2 VH
VL: B2 VL with K24R, N30S, H31N, S53R, D92S, H93T, F94L
notes: Caninized IgG, light chain QC2301B12VK
B7: H3A02B4VL1 (antibody, V domains shown)
VH: B2 VH
VL: EIVMTQSPASLSLSQEEKVTITCRASQDISNYLNWYQQKPGQAPKLLIYYTSRLHSGVPSRFSGSGSGTDFSFTISSLEPEDVAVYYCQQGNMFPYTFGGGT
notes: Caninized IgG
B8: H3A02B4L1AL1 (antibody, V domains shown)
VH: B2 VH
VL: B7 VL with R24K, S30N, N31H
notes: Caninized IgG
B9: 15H02-02E01 (antibody, IgG1, V domains shown)
VH: EVQLEQSGPGLVAPSQSLSITCTVSGFSLTGYGVNWVRQPPGKGLEWLGMIWGDGSTDYNSALKSRLSISKDNSKSQVFLKMNSLQTDDTARYYCARDGYYYGTTWYFDVWGAGTTVTVSS
VL: B1 VL with Q3V, M4L, T7S
B10: 01B12-02B08 (antibody, IgG1, V domains shown)
VH: B9 VH with Q3K, E5Q, Q6E
VL: B1 VL with Q3V, T7S
B11: 31F05-02B03 (antibody, IgG1, V domains shown)
VH: B9 VH with E5Q
VL: B1 VL
B12: 02B04-02A08 (antibody, V domains shown)
VH: EVKLEESGPGLVAPSQSLSITCTVSGFSLTGYGVNWVRQPPGKGLEWLGMIWGDGSTDYNSALKSRLNISKDNSKSQVFLKMDSLQTDDTARYYCARGGYDYDVPFFDYWGQGTTLTVSS
VL: B1 VL with Q3V, I44V, S92N, T93M, L94F, R96Y, F98L
B13: 26C08-02F06 (antibody, IgG1, V domains shown)
VH: B12 VH with N68S, D83N, P105S
VL: B1 VL with Q3V, M4L, I44V, L54F, Q80H, S92N, R96Y
B14: 30E01-02A11 (antibody, IgG1, V domains shown)
VH: B9 VH with E1Q, Q3K, Q6E
VL: B1 VL with Q3V, M4L
B15: 16G01-02F03 (antibody, IgG2a, V domains shown)
VH: EVQLQESGAELVKPGASVKLSCKASGYTFTNYWMHWVKQRPGQGLEWIGHIDPSDGETHYNQKFKDKATLTVDKSSSTAYMQLTGLTSEDSAVYYCARFLPDYWGQGTSVTVSS
VL: DIVLTQTPAIMSASPGEKVTMTCRASSSVSSIYLHWYQQKPGSSPKLWIYSTSNLASGVPARFSGSGSGTSYSLTVSSVEAEDAATYYCQLYDNSPLTFGAGT
B16: 20D11-02E10 (antibody, IgG1, V domains shown)
VH: B9 VH with Q6E
VL: DIVITQTPLSLPVSLGDQASISCRSSQSIVHINRHTYLGWYLQKPGQSLKLLIYGVSNRFSGVPDRFSGSGSGTDFTLKISRVEAEDMGVYYCFQGTHVPFTFGSGT
B17: H3AQC23L6A (antibody, V domains shown)
VH: B2 VH
VL: B2 VL with T51V, S52T, S56A
B18: H3AQC2301B12L6AL2 (antibody, V domains shown)
VH: B2 VH
VL: B2 VL with K24R, N30S, H31N, T51V, S52T, S56A, D92S, H93T, F94L
B19: H3AQC23L2AL1 (antibody, V domains shown)
VH: B2 VH
VL: B2 VL with D28S, T51I, L54F, G91S, D92H, H93T, F94L, R96Y
B20: H3AQC23L2AL3 (antibody, V domains shown)
VH: B2 VH
VL: B2 VL with K24R, D28S, N30S, H31N, Y32N, T51I, L54F, R96Y

Target: T1, canine beta-NGF (cNGF) (canine, UniProt Q29074 110-229 (pig entry))
T1 construct: also called canine NGF; can NGF
T1 chain: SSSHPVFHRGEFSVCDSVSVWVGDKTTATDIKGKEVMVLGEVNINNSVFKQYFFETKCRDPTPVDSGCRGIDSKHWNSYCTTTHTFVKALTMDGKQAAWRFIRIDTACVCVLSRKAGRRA
Assay: SPR (Biacore)
B1 showed a Kd of 1.18 nM.
In the case of B2, the Kd is reported as 0.089 nM.
B3 was tested, and the Kd was 1.07 nM.
Work on B4 yielded a Kd of 0.435 nM.
Work on B5 yielded a Kd of 12.5 nM.
With B6 the Kd was 1.13 nM.
Work on B7 yielded a Kd of 0.16 nM.
Work on B8 yielded a Kd of 2 nM.

Target: T1, canine beta-NGF (cNGF)
Assay: cell-based or functional assay
In the case of B9, the “Average Max % Inhib. (pERK 1/2, CHO cells expressing human TrkA)” value is reported as 88.2% and the “IC50 (pERK 1/2, CHO cells expressing human TrkA)” value is reported as 18.8 nM.
In the case of B10, the “Average Max % Inhib. (pERK 1/2, CHO cells expressing human TrkA)” value is reported as 87.1% and the “IC50 (pERK 1/2, CHO cells expressing human TrkA)” value is reported as 4.7 nM.
B11 was tested, and the “Average Max % Inhib. (pERK 1/2, CHO cells expressing human TrkA)” value was 86.2% and the “IC50 (pERK 1/2, CHO cells expressing human TrkA)” value was 4.1 nM.
For B12, the “Average Max % Inhib. (pERK 1/2, CHO cells expressing human TrkA)” value was 82.2% and the “IC50 (pERK 1/2, CHO cells expressing human TrkA)” value was 4 nM.
With B13 the “Average Max % Inhib. (pERK 1/2, CHO cells expressing human TrkA)” value was 57.4% and the “IC50 (pERK 1/2, CHO cells expressing human TrkA)” value was 7.1 nM.
For B14, the “Average Max % Inhib. (pERK 1/2, CHO cells expressing human TrkA)” value was 72.4% and the “IC50 (pERK 1/2, CHO cells expressing human TrkA)” value was 9.8 nM.
In the case of B15, the “Average Max % Inhib. (pERK 1/2, CHO cells expressing human TrkA)” value is reported as 27.7%.
For B16, the “Average Max % Inhib. (pERK 1/2, CHO cells expressing human TrkA)” value was 78.1% and the “IC50 (pERK 1/2, CHO cells expressing human TrkA)” value was 5.5 nM.

Target: T1, canine beta-NGF (cNGF)
Assay: cell-based or functional assay
Remark: another data set of the same source
With B1 the “IC50 [nM] (TrkA cell based assay)” value was 1.02 nM.
B2 was tested, and the “IC50 [nM] (TrkA cell based assay)” value was 2.32 nM.
For B17, the “IC50 [nM] (TrkA cell based assay)” value was 16.9 nM.
For B3, the “IC50 [nM] (TrkA cell based assay)” value was 0.65 nM.
For B4, the “IC50 [nM] (TrkA cell based assay)” value was 0.99 nM.
With B5 the “IC50 [nM] (TrkA cell based assay)” value was 9.7 nM.
For B18, the “IC50 [nM] (TrkA cell based assay)” value was 10 nM.
For B6, the “IC50 [nM] (TrkA cell based assay)” value was 0.8 nM.
With B7 the “IC50 [nM] (TrkA cell based assay)” value was 1.4 nM.
B8 was tested, and the “IC50 [nM] (TrkA cell based assay)” value was 1.56 nM.
In the case of B19, the “IC50 [nM] (TrkA cell based assay)” value is reported as 4.4 nM.
In the case of B20, the “IC50 [nM] (TrkA cell based assay)” value is reported as 2.57 nM.
